In assay [1] the target is human somatostatin receptor 1 (SSTR1), PRESTO-Tango construct (human) (UniProt P30872).
Assay [2] concerns the target human somatostatin receptor 2 (SSTR2), PRESTO-Tango construct (human) (UniProt P30874).
Assay [3] deals with human somatostatin receptor 4 (SSTR4), PRESTO-Tango construct (human) (UniProt P31391).
Sequence of human somatostatin receptor 4 (SSTR4), PRESTO-Tango construct (human) (P31391 whole entry): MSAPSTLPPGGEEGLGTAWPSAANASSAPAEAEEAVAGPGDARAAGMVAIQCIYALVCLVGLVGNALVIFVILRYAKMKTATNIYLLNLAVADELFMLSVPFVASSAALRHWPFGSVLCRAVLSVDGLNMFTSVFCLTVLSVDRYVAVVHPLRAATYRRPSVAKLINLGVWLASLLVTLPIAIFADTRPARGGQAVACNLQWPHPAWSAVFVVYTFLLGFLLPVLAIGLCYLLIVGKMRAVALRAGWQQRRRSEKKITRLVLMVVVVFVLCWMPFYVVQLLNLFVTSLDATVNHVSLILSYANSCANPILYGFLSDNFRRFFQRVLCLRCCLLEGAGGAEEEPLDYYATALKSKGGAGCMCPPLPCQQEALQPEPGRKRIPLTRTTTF

Sequence of human somatostatin receptor 2 (SSTR2), PRESTO-Tango construct (human) (P30874 whole entry): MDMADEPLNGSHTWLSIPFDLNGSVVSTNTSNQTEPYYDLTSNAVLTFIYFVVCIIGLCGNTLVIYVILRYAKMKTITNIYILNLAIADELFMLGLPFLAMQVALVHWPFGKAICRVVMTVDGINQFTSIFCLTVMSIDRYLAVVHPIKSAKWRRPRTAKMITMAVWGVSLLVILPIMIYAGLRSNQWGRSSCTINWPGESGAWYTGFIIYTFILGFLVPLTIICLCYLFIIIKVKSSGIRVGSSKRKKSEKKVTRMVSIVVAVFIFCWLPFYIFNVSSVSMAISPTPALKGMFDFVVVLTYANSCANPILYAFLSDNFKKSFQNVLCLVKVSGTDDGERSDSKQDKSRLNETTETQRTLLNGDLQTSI
Sequence of human somatostatin receptor 1 (SSTR1), PRESTO-Tango construct (human) (P30872 whole entry): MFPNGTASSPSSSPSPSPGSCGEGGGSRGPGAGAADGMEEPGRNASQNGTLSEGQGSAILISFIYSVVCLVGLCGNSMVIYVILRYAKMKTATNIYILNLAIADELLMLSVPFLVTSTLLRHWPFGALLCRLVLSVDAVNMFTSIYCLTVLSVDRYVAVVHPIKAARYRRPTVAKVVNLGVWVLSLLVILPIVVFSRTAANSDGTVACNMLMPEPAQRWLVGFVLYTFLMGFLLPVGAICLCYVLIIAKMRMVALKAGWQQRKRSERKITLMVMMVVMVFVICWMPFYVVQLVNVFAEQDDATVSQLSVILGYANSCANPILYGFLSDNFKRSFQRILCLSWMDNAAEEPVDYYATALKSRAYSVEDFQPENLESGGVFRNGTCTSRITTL

consomatin Pr1 (peptide): the PRESTO-Tango β-arrestin recruitment assay (HTLA cells), EC50 in assay [1] came to 0.13 µM; in assay [2], 0.041 µM.

On to consomatin Fj2 (peptide), for which the PRESTO-Tango β-arrestin recruitment assay (HTLA cells), EC50 in assay [2] was found to be 0.2 µM; in assay [3], 2 µM.

(Values after publication PMC12663243 (Scientific Reports, 2025).)
